Results on 2 molecules are retold here after publication PMC7617694 (Molecular cell, 2025).

Holding throughout (test): cryo-EM structure
Test [1] addresses Recombinant human CXCL5 (human).
Test [2] has as its target T1, Recombinant human CXCL1 (human, UniProt P09341 35-107).
T1 sequence: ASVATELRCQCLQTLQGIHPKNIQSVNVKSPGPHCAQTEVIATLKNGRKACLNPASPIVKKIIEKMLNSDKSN

In test [3] the target is T2, Recombinant human CXCL3 (human, UniProt P19876 35-107).
T2 sequence: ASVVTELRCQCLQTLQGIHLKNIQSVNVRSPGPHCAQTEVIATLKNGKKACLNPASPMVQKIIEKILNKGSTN

Test [4] concerns the target T3, Recombinant human CXCL2 (human, UniProt P19875 35-107).
T3 sequence: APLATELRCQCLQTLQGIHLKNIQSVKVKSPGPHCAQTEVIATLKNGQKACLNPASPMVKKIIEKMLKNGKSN

As to Recombinant human CXCL5 (ligand), in test [1], the stoichiometry N (in general, a count of units in the complex or per binding partner) was found to be 2.

B1: C-X-C chemokine receptor 2 (CXCR2), FLAG-tagged, purified from Sf9 cells (receptor)
chain: ANFTPVNGSSGNQSVRLVTSSSMEDFNMESDSFEDFWKGEDLSNYSYSSTLPPFLLDAAPCEPESLEINKYFVVIIYALVFLLSLLGNSLVMLVILYSRVGRSVTDVYLLNLALADLLFALTLPIWAASKVNGWIFGTFLCKVVSLLKEVNFYSGILLLACISVDRYLAIVHATRTLTQKRYLVKFICLSIWGLSLLLALPVLLFRRTVYSSNVSPACYEDMGNNTANWRMLLRILPQSFGFIVPLLIMLFCYGFTLRTLFKAHMGQKHRAMRVIFAVVLIFLLCWLPYNLVLLADTLMRTQVIQETCERRNHIDRALDATEILGILHSCLNPLIYAFIGQKFRHGLLKILAIHGLISKDSLPKDSRPSFVGSSSGHTSTTL
Regarding B1, the binding result in test [2], in test [3] and in test [4] was “binds” each time.
